Each block holds one molecule with its values, some of them ahead of it.
Experiments:
[1] = biological target: KKETAV hexapeptide (optimised consensus C-terminal ligand of PSD-95 PDZ3); assay: ITC (MicroCal ITC-200); conditions: pH 7.5, 25 °C, no added salt stated (50 mM potassium phosphate only)
[2] = biological target: KKETAV hexapeptide (optimised consensus C-terminal ligand of PSD-95 PDZ3); assay: ITC (quoted from ref. 19, Saro et al. 2007); conditions: pH 6.0, 25 °C, 10 mM NaCl, 20 mM MES; cited from earlier work
CRIPT (Homo sapiens) [3] = assay: ITC; conditions: cited from earlier work
KKETAV peptide = assay: ITC; conditions: cited from earlier work
CRIPT (Homo sapiens) [4] = assay: ITC; conditions: cited from earlier work; remark: listed apart in the source
CRIPT (Homo sapiens) [5] = assay: ITC; conditions: cited from earlier work; remark: listed apart in the source
[6] = biological target: T1, PDZ3 domain of PSD-95 (wild type, residues 302-403) (UniProt P31016 302-403); assay: ITC; KKETAV (900 µM; 3 mM for D332P-PDZ3) injected into the protein in the cell (70 µM; 200 µM for D332P-PDZ3); 25°C; 50 mM potassium phosphate pH 7.5; single set of identical sites model; conditions: both partners purified
T1 construct: Postsynaptic density protein-95 (PSD-95; SAP-90; DLG-4), third PDZ domain with the α3 helix, residues 302-403 of the full PSD-95 protein; PDB 1BE9 is a longer construct of the same domain; 15N-labelled for NMR; also called PSD-95-PDZ3; WT-PDZ3; source: E. coli BL21/DE3, purified
T1 sequence (P31016 302-403): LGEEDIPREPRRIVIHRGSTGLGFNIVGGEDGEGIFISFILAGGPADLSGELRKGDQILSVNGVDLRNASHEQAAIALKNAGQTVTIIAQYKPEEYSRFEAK

[7] = biological target: T2, Δ10ct-PDZ3 (PSD-95 residues 302-393, without the α3 helix) (UniProt P31016 302-393); assay: as above; conditions: both partners purified
T2 construct: PSD-95 third PDZ domain truncated of its ten C-terminal residues (α3 helix), residues 302-393 of the full PSD-95 protein; 15N-labelled for NMR; source: E. coli BL21/DE3, purified
T2 sequence (P31016 302-393, stated change not applied): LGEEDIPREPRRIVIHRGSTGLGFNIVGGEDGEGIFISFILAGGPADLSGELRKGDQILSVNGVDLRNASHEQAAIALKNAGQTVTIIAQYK

ΔG [1]: -8 kcal/mol
Molecule: PSD-95 (DLG4/SAP-90) third PDZ domain, PDZ3, wild type
Kd [2]: 450 nM | ΔG [2]: -8.7 kcal/mol

Molecule: PSD-95 PDZ3 (from UniProt P78352)
Kd (CRIPT (Homo sapiens) [3]): 14000 nM | Kd (KKETAV peptide): 450 nM | Kd (CRIPT (Homo sapiens) [4]): 3600 nM | Kd (CRIPT (Homo sapiens) [5]): 1000 nM

stoichiometry N [6]: 0.99 | Kd [7]: 3600 nM | dH [7]: -8.8 kcal/mol | stoichiometry N [7]: 0.9
B1: KKETAV hexapeptide (peptide)
peptide: KKETAV
notes: residues numbered from 0 (C-terminal Val) to -5 (N-terminal Lys); also called KKETAV ligand; consensus hexapeptide; source: bought: Peptide 2.0 (USA)
